Test results from publication doi:10.1101/595835, “An oligomeric state-dependent switch in FICD regulates AMPylation and deAMPylation of the chaperone BiP” (bioRxiv, 2019).
Blank lines part the entries; values can stand above or below the binder they belong to.

Tests used:
[1] = molecular target: the molecule itself; test: SEC; analytical SEC, SEC-3 HPLC column, HKMC buffer (50 mM HEPES-KOH pH 7.4, 150 mM KCl, 10 mM MgCl2, 1 mM CaCl2), 25 °C; FICD at 20 µM, or 0.2-50 µM after 16 h at 25 °C (Figure S1D-E); approximate Kd of dimer to monomers from elution peak times
[2] = molecular target: the molecule itself; test: crystal structure; sitting drop vapour diffusion, FICD at 9 mg/ml in 10 mM Tris-HCl pH 8.0, 150 mM NaCl, 1 mM TCEP, ± 10 mM MgATP
[3] = molecular target: T1, biotinylated AviTag-haBiP(28-635)^T229A-V461F (Chinese hamster, UniProt G3I8R9 28-635, T229A | V461F, biotin on the AviTag); test: BLI; biotinylated BiP^T229A-V461F(28-635) immobilised on streptavidin biosensors and pre-saturated with ATP (2 mM); FICD His363Ala variants at 250 nM, without or with nucleotide (ATP 8 mM, ADP 2 mM); HKM plus 0.05% Triton X-100, 30 °C; settings: both partners purified
T1 construct: Chinese hamster BiP (haBiP), aa 28-635; the assay tells the nucleotide state; also called BiP^T229A-V461F:Apo; BiP:ATP; not shown: GST, N-terminal, cleaved; AviTag, N-terminal, kept
T1 sequence (G3I8R9 28-635 T229A/V461F): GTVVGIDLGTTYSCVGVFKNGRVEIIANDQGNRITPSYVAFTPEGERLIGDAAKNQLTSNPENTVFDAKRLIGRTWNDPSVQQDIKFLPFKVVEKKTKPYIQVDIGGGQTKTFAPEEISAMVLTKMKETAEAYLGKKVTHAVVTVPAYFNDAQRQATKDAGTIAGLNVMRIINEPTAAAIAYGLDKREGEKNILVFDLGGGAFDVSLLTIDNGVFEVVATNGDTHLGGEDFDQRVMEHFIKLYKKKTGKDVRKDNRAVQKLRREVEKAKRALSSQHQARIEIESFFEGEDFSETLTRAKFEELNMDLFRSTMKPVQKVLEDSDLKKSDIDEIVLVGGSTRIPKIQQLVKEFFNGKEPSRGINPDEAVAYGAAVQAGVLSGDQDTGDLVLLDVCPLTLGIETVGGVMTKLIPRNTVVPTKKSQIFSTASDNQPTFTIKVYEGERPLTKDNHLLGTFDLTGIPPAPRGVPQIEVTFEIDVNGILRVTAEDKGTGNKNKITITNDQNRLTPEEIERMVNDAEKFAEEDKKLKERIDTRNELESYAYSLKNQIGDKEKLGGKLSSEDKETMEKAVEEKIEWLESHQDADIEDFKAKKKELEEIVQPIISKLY

[4] = molecular target: T2, biotinylated AviTag-haBiP^V461F(19-654), AMPylated (Chinese hamster, UniProt G3I8R9 19-654, V461F, AMP on Thr518 (AMPylation); biotin on the AviTag); test: BLI; biotinylated AMPylated or unmodified BiP immobilised on streptavidin biosensors; FICD His363Ala variants in solution at 250 nM; HKM plus 0.05% Triton X-100, 30 °C (Figure S2G); settings: both partners purified
T2 construct: Chinese hamster BiP (haBiP), aa 19-654; also called BiP-AMP; AMPylated BiP; not shown: GST, N-terminal, cleaved; AviTag, N-terminal, kept
T2 sequence (G3I8R9 19-654 V461F): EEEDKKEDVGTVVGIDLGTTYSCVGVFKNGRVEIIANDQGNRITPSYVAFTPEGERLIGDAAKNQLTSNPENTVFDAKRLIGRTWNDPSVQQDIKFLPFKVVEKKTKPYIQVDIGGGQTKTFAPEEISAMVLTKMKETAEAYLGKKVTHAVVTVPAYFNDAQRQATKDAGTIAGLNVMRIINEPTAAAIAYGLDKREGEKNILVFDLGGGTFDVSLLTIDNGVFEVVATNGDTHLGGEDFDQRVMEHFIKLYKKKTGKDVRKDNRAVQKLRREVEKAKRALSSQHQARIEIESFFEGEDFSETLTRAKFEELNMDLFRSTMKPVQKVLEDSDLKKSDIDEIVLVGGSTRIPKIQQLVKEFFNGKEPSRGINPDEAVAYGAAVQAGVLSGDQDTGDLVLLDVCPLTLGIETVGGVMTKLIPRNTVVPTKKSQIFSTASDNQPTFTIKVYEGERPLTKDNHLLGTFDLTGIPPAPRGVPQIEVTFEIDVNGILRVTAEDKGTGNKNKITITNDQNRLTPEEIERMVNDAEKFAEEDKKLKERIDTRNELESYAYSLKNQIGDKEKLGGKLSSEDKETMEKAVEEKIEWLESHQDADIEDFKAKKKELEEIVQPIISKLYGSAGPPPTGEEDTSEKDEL

[5] = molecular target: the molecule itself; test: AUC; fluorescence-detected sedimentation velocity, Oregon Green-labelled FICD 1.6 µM to 31 pM, 20 °C, 50 mM HEPES-KOH pH 7.4, 150 mM KCl, 10 mM MgCl2, 1 mM CaCl2, 0.3 mM TCEP, 0.1% Tween-20, 0.15 mg/ml BSA; monomer-dimer fit (dimer to monomers)

B1: FICD^E242A (aa 104-445) (domain or fragment, human, UniProt Q9BVA6 104-445, looked up)
chain: LEARAALNQALEMKRQGKREKAQKLFMHALKMDPDFVDALTEFGIFSEEDKDIIQADYLYTRALTISPYHEKALVNRDRTLPLVEEIDQRYFSIIDSKVKKVMSIPKGNSALRRVMEETYYHHIYHTVAIEGNTLTLSAIRHILETRYAVPGKSLEEQNEVIGMHAAMKYINTTLVSRIGSVTISDVLEIHRRVLGYVDPVEAGRFRTTQVLVGHHIPPHPQDVEKQMQEFVQWLNSEEAMNLHPVEFAALAHYKLVYIHPFIDGNGRTSRLLMNLILMQAGYPPITIRKEQRSDYYHVLEAANEGDVRPFIRFIAKCTETTLDTLLFATTEYSVALPEAQP
notes: human FICD (HYPE), aa 104-445; also called dimer relay mutant; source: E. coli T7 Express lysY/I^q, purified (Ni-NTA, on-column Ulp1 cleavage, anion exchange, SEC); not shown: His6, N-terminal, cleaved; Smt3, N-terminal, cleaved
Kd [1]: < 400 nM

B2: FICD^G299S (aa 104-445) (domain or fragment, human, UniProt Q9BVA6 104-445, looked up)
chain: LEARAALNQALEMKRQGKREKAQKLFMHALKMDPDFVDALTEFGIFSEEDKDIIQADYLYTRALTISPYHEKALVNRDRTLPLVEEIDQRYFSIIDSKVKKVMSIPKGNSALRRVMEETYYHHIYHTVAIEGNTLTLSEIRHILETRYAVPGKSLEEQNEVIGMHAAMKYINTTLVSRIGSVTISDVLEIHRRVLSYVDPVEAGRFRTTQVLVGHHIPPHPQDVEKQMQEFVQWLNSEEAMNLHPVEFAALAHYKLVYIHPFIDGNGRTSRLLMNLILMQAGYPPITIRKEQRSDYYHVLEAANEGDVRPFIRFIAKCTETTLDTLLFATTEYSVALPEAQP
notes: human FICD (HYPE), aa 104-445; Partially monomeric; also called Gly299Ser; source: E. coli T7 Express lysY/I^q, purified (Ni-NTA, on-column Ulp1 cleavage, anion exchange, SEC); not shown: His6, N-terminal, cleaved; Smt3, N-terminal, cleaved
Kd [1]: 9500 nM

B3: FICD^K256A (aa 104-445) (domain or fragment, human, UniProt Q9BVA6 104-445, looked up)
chain: LEARAALNQALEMKRQGKREKAQKLFMHALKMDPDFVDALTEFGIFSEEDKDIIQADYLYTRALTISPYHEKALVNRDRTLPLVEEIDQRYFSIIDSKVKKVMSIPKGNSALRRVMEETYYHHIYHTVAIEGNTLTLSEIRHILETRYAVPGASLEEQNEVIGMHAAMKYINTTLVSRIGSVTISDVLEIHRRVLGYVDPVEAGRFRTTQVLVGHHIPPHPQDVEKQMQEFVQWLNSEEAMNLHPVEFAALAHYKLVYIHPFIDGNGRTSRLLMNLILMQAGYPPITIRKEQRSDYYHVLEAANEGDVRPFIRFIAKCTETTLDTLLFATTEYSVALPEAQP
notes: human FICD (HYPE), aa 104-445; also called dimeric dimer relay mutant FICD^K256A; source: E. coli T7 Express lysY/I^q, purified (Ni-NTA, on-column Ulp1 cleavage, anion exchange, SEC); not shown: His6, N-terminal, cleaved; Smt3, N-terminal, cleaved
binding result [2]: binds

binding result [3]: binds | binding result [4]: binds
B4: FICD^L258D-H363A (aa 104-445) (domain or fragment, human, UniProt Q9BVA6 104-445, looked up)
chain: LEARAALNQALEMKRQGKREKAQKLFMHALKMDPDFVDALTEFGIFSEEDKDIIQADYLYTRALTISPYHEKALVNRDRTLPLVEEIDQRYFSIIDSKVKKVMSIPKGNSALRRVMEETYYHHIYHTVAIEGNTLTLSEIRHILETRYAVPGKSDEEQNEVIGMHAAMKYINTTLVSRIGSVTISDVLEIHRRVLGYVDPVEAGRFRTTQVLVGHHIPPHPQDVEKQMQEFVQWLNSEEAMNLHPVEFAALAHYKLVYIAPFIDGNGRTSRLLMNLILMQAGYPPITIRKEQRSDYYHVLEAANEGDVRPFIRFIAKCTETTLDTLLFATTEYSVALPEAQP
notes: human FICD (HYPE), aa 104-445; also called mFICD^H363A; source: E. coli T7 Express lysY/I^q, purified (Ni-NTA, on-column Ulp1 cleavage, anion exchange, SEC); not shown: His6, N-terminal, cleaved; Smt3, N-terminal, cleaved

B5: Oregon Green-labelled FICD^NC (domain or fragment, human)
chain: CLEARAALNQALEMKRQGKREKAQKLFMHALKMDPDFVDALTEFGIFSEEDKDIIQADYLYTRALTISPYHEKALVNRDRTLPLVEEIDQRYFSIIDSKVKKVMSIPKGNSALRRVMEETYYHHIYHTVAIEGNTLTLSEIRHILETRYAVPGKSLEEQNEVIGMHAAMKYINTTLVSRIGSVTISDVLEIHRRVLGYVDPVEAGRFRTTQVLVGHHIPPHPQDVEKQMQEFVQWLNSEEAMNLHPVEFAALAHYKLVYIHPFIDGNGRTSRLLMNLILMQAGYPPITIRKEQRSDYYHVLEAANEGDVRPFIRFIAKCTETTLDTLLFATTEYSVALPEAQP
modifications: Oregon Green 488 on the added N-terminal cysteine (labelling efficiency 74%)
notes: N-terminal cysteine added for site-specific labelling, told in words only; human FICD (HYPE), aa 104-445 (purified 'as described above'); also called UK 2339; wild-type (red); source: E. coli, purified (Ni-NTA, anion exchange, SEC), labelled with Oregon Green 488-iodoacetamide; not shown: His6, N-terminal, cleaved; Smt3, N-terminal, cleaved
Kd [5]: 1.2 nM
